Measurements as given in ChEMBL document CHEMBL1649255, “Impact of novel human immunodeficiency virus type 1 reverse transcriptase mutations P119S and T165A on 4'-ethynylthymidine analog resistance profile” (Antimicrob Agents Chemother, 2009).

Assays:
Details in all cases: Human immunodeficiency virus 1
[1] = system: Cc1cn([C@H]2C[C@H](O)[C@@H](COP(=O)(O)OP(=O)(O)OP(=O)(O)O)O2)c(=O)[nH]c1=O; assay: Activity of HIV1 Reverse transcriptase M184V mutant
[2] = system: Cc1cn([C@H]2C[C@H](O)[C@@H](COP(=O)(O)OP(=O)(O)OP(=O)(O)O)O2)c(=O)[nH]c1=O; assay: Ratio of Kcat to Km for HIV1 Reverse transcriptase M184V mutant
[3] = system: Cc1cn([C@H]2C[C@H](O)[C@@H](COP(=O)(O)OP(=O)(O)OP(=O)(O)O)O2)c(=O)[nH]c1=O; assay: Activity of HIV1 Reverse transcriptase P119S mutant
[4] = system: Cc1cn([C@H]2C[C@H](O)[C@@H](COP(=O)(O)OP(=O)(O)OP(=O)(O)O)O2)c(=O)[nH]c1=O; assay: Ratio of Kcat to Km for HIV1 Reverse transcriptase P119S mutant
[5] = system: Cc1cn([C@H]2C[C@H](O)[C@@H](COP(=O)(O)OP(=O)(O)OP(=O)(O)O)O2)c(=O)[nH]c1=O; assay: Activity of HIV1 Reverse transcriptase P119S/M184V mutant
[6] = system: Cc1cn([C@H]2C[C@H](O)[C@@H](COP(=O)(O)OP(=O)(O)OP(=O)(O)O)O2)c(=O)[nH]c1=O; assay: Ratio of Kcat to Km for HIV1 Reverse transcriptase P119S/M184V mutant
[7] = system: Cc1cn([C@H]2C[C@H](O)[C@@H](COP(=O)(O)OP(=O)(O)OP(=O)(O)O)O2)c(=O)[nH]c1=O; assay: Activity of HIV1 Reverse transcriptase P119S/T165A mutant
[8] = system: Cc1cn([C@H]2C[C@H](O)[C@@H](COP(=O)(O)OP(=O)(O)OP(=O)(O)O)O2)c(=O)[nH]c1=O; assay: Ratio of Kcat to Km for HIV1 Reverse transcriptase P119S/T165A mutant
[9] = system: Cc1cn([C@H]2C[C@H](O)[C@@H](COP(=O)(O)OP(=O)(O)OP(=O)(O)O)O2)c(=O)[nH]c1=O; assay: Activity of HIV1 Reverse transcriptase P119S/T165A/M184V mutant
[10] = system: Cc1cn([C@H]2C[C@H](O)[C@@H](COP(=O)(O)OP(=O)(O)OP(=O)(O)O)O2)c(=O)[nH]c1=O; assay: Ratio of Kcat to Km for HIV1 Reverse transcriptase P119S/T165A/M184V mutant
[11] = system: Cc1cn([C@H]2C[C@H](O)[C@@H](COP(=O)(O)OP(=O)(O)OP(=O)(O)O)O2)c(=O)[nH]c1=O; assay: Activity of HIV1 Reverse transcriptase T165A mutant
[12] = system: Cc1cn([C@H]2C[C@H](O)[C@@H](COP(=O)(O)OP(=O)(O)OP(=O)(O)O)O2)c(=O)[nH]c1=O; assay: Ratio of Kcat to Km for HIV1 Reverse transcriptase T165A mutant
[13] = system: Cc1cn([C@H]2C[C@H](O)[C@@H](COP(=O)(O)OP(=O)(O)OP(=O)(O)O)O2)c(=O)[nH]c1=O; assay: Activity of HIV1 Reverse transcriptase T165A/M184V mutant
[14] = system: Cc1cn([C@H]2C[C@H](O)[C@@H](COP(=O)(O)OP(=O)(O)OP(=O)(O)O)O2)c(=O)[nH]c1=O; assay: Ratio of Kcat to Km for HIV1 Reverse transcriptase T165A/M184V mutant

For “Human immunodeficiency virus type 1 reverse transcriptase (Human immunodeficiency virus 1) (from UniProt Q72547) M184V”, the kcat [1] was 3.1 ×10⁻⁴ /s and the kcat/Km (10'-2/microM/s) [2] was 2.6.

In the case of “Human immunodeficiency virus type 1 reverse transcriptase (Human immunodeficiency virus 1) (from UniProt Q72547) P119S”, the Km [3] is reported as 0.13 µM, the kcat [3] is reported as 3.3 ×10⁻⁴ /s and the kcat/Km (10'-2/microM/s) [4] is reported as 2.5.

Work on “Human immunodeficiency virus type 1 reverse transcriptase (Human immunodeficiency virus 1) (from UniProt Q72547) P119S,M184V” yielded a Km [5] of 0.18 µM, a kcat [5] of 4 ×10⁻⁵ /s and a kcat/Km (10'-2/microM/s) [6] of 2.2.

In the case of “Human immunodeficiency virus type 1 reverse transcriptase (Human immunodeficiency virus 1) (from UniProt Q72547) P119S,T165A”, the Km [7] is reported as 0.07 µM, the kcat [7] is reported as 3.6 ×10⁻⁴ /s and the kcat/Km (10'-2/microM/s) [8] is reported as 5.1.

For “Human immunodeficiency virus type 1 reverse transcriptase (Human immunodeficiency virus 1) (from UniProt Q72547) P119S,T165A,M184V”, the Km [9] was 0.15 µM, the kcat [9] was 9 ×10⁻⁵ /s and the kcat/Km (10'-3/microM/s) [10] was 6.

“Human immunodeficiency virus type 1 reverse transcriptase (Human immunodeficiency virus 1) (from UniProt Q72547) T165A” showed a Km [11] of 0.1 µM, a kcat [11] of 2.7 ×10⁻⁵ /s and a kcat/Km (10'-2/microM/s) [12] of 2.7.

“Human immunodeficiency virus type 1 reverse transcriptase (Human immunodeficiency virus 1) (from UniProt Q72547) T165A,M184V” showed a kcat [13] of 1.4 ×10⁻⁵ /s and a kcat/Km (10'-2/microM/s) [14] of 1.3.
